Assay results taken from publication PMC5630700 (Frontiers in Immunology, 2017).

Biological target: MARV Musoke NP tagged with FLAG at the N-terminus and His6 at the C-terminus (Wt) (Marburg virus Musoke-80, UniProt P27588)
Assay: far-Western, overlay or dot blot
Conditions: one partner purified

Chain of MARV Musoke NP tagged with FLAG at the N-terminus and His6 at the C-terminus (Wt) (P27588 whole entry): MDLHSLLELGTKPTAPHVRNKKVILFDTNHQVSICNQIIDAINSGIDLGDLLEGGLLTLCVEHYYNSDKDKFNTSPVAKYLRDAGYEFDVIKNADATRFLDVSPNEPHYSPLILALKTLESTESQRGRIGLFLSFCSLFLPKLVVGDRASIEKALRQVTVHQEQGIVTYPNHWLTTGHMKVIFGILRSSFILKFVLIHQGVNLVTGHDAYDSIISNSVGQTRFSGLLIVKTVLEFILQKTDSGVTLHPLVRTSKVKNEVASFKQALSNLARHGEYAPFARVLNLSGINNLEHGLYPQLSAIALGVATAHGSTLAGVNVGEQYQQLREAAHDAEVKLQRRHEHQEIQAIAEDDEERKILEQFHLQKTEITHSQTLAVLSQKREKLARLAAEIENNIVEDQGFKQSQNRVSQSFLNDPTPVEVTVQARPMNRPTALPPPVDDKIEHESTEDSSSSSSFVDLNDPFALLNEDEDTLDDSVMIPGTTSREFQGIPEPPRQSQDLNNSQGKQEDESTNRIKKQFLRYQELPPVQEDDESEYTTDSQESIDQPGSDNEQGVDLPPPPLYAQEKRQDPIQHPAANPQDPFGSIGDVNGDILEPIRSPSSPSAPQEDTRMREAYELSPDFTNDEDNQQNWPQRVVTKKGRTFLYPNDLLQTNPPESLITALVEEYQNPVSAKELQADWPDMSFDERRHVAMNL

B1: sdAb D–alkaline phosphatase fusion protein (pecan16) (VHH)
VHH: KVKLQESGGGTVQAGGSLRLSCKASGFTFRSSAMGWYRRAPGQHRIFVGSFSRNEFKYADFAQGRFTISRDNAKNTVSLQMNHVIPEDTAVYYCHEDPYGMESLRYWGQGTQVTVSS
- binding result: binds
